# Measured values: article PMC4061085
# How the values were obtained:
# [1] = molecular target: CK1ε from human as HIS-tagged fusion protein (human) (UniProt P49674)
# [2] = molecular target: CK1δ KD (kinase domain of CK1δ) (rat) (UniProt Q06486)
# [3] = molecular target: CK1δ from rat as GST-tagged fusion protein (rat) (UniProt Q06486)
# Chain of UniProt P49674 (P49674 whole entry, the tested form may be a part): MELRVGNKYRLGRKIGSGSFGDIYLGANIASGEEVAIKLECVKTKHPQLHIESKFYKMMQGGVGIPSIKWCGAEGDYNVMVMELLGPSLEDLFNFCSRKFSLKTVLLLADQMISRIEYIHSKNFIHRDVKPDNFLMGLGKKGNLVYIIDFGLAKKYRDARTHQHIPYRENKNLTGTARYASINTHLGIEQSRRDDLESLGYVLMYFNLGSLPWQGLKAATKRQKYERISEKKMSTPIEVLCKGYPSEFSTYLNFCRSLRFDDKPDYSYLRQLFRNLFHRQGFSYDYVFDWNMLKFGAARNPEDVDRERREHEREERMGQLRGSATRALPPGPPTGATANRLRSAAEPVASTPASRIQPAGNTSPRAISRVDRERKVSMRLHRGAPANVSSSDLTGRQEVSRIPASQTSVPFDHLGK
Substance,"Km of phosphorylation of GST-tubulin by the CK1 isoform (Michaelis-Menten kinetics, in vitro kinase assay, 32P incorporation, 30 min at 30°C) [1] [µM]","Km of phosphorylation of GST-tubulin by the CK1 isoform (Michaelis-Menten kinetics, in vitro kinase assay, 32P incorporation, 30 min at 30°C) [2] [µM]","Km of phosphorylation of GST-tubulin by the CK1 isoform (Michaelis-Menten kinetics, in vitro kinase assay, 32P incorporation, 30 min at 30°C) [3] [µM]"
Recombinant human α-tubulin1B (GST-tubulin) (from UniProt P68363 1-451) (natural protein),0.329,0.266,0.205
Recombinant human α-tubulin4A (GST-tubulin) (from UniProt P68366 1-448) (natural protein),0.602,0.438,0.337
Recombinant human β-tubulin2A (GST-tubulin) (from UniProt Q13885 1-445) (natural protein),1.41,1.47,1.17
